According to patent publication US20170247475A1 (Boehringer Ingelheim, published 2017):

Tests used:
[1] = target: T1, recombinant human VEGF165 (human, UniProt P15692-4 27-191); assay: Biacore, periplasmic extract on hVEGF165 chip, two phase decay fit
T1 construct: also called hVEGF165; rhVEGF165
Experimental: (§1) Dissociation rates of inhibitory VHHs are analyzed on Biacore (Biacore T100 instrument, GE Healthcare). HBS-EP+ buffer is used as running buffer and experiments are performed at 25° C. […] After immobilization, surfaces are deactivated with 10 min injection of 1M ethanolamine pH8.5. A reference surface is activated and deactivated with respectively EDC/NHS and ethanolamine. Periplasmic extracts of VHHs are injected at a 10-fold dilution in running buffer for 2 min at 45 μl/min and allowed to dissociate for 10 or 15 min. Between different samples, the surfaces are regenerated with regeneration buffer. Data are double referenced by subtraction of the curves on the reference channel and of a blank running buffer injection. […] is evaluated by fitting a two phase decay model in the Biacore T100 Evaluation software v2.0.1.

[2] = target: T1, recombinant human VEGF165; assay: Biacore, periplasmic extract on hVEGF165 chip
Experimental: as §1

T1 sequence (P15692 other isoform, or with tags, fused parts or gaps limits assumed): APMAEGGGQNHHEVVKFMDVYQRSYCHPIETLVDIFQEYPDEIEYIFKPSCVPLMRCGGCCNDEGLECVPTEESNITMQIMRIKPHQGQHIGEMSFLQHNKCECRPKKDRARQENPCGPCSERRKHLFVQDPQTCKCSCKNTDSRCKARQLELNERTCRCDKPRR

Row | Binder | % fast [1] [%] | Binding level (RU) [2] [RU]
1 | VEGFBII23A03 (VHH, periplasmic extract) VHH: EVQLVESGGGLVQPGDSLKLSCVASGRTFSSYSMGWFRQAQGKEREFVVAISSGGYIYDSVSLQGRFTISRDNTKNTVYLQTPSLKPEDTAVYYCAASRAYGSSRLRLADTYDYWGQGTQVTVSS | 15 | 487
2 | VEGFBII22E04 (VHH, periplasmic extract) VHH: EVQLVESGGGLVQPGDSLKLSCVASGRTSSSYSMGWFRQAQGKEREFVVAISSGGSIYDSVSLQGRFTISRDNTKNTVYLQTPSLKPEDTAVYYCAASRAYASSRLRLADTYDYWGQGTQVTVSS | 14 | 520
3 | VEGFBII27G07 (VHH, periplasmic extract) VHH: EVQLVESGGGLVQPGDSLKLSCVASGRTSSSYSMGWFRQAQGQEREFVVAISSGGYIYDSVSLQGRFTISRDNTKNTVYLQTPSLKPEDTAVYYCAASRAYGSSRLRLADTYDYWGQGTQVTVSS | 18 | 471
4 | VEGFBII62F02 (VHH, periplasmic extract) VHH: EVQLVESGGGLVQPGDSLKLSCAFSGRTFSSYSMGWFRQAQGKEREFVVAIASGGYIYDAVSLEGRFTISRDNTKDTVYLQTPSLKPEDTAVYYCAASRAYGSSRLRLADTYDYWGQGTQVTVSS | 21 | 205
5 | VEGFBII30C09 (VHH, periplasmic extract; also called VEGFBII30009) VHH: EVQLVESGGGLVQPGDSLKLSCIASGRTSSSYSMGWFRQAQGQEREFVVAISSGGYIYDSVSLQGRFTISRDNTKNTVYLQTPSLKPEDTAVYYCAASRAYGSSRLRLADTYDYWGQGTQVTVSS | 19 | 264
6 | VEGFBII41G03 (VHH, periplasmic extract) VHH: EVQLVESGGGLVQPGDSLKLSCAFSGRTFSSYSMAWFRQAQGKEREFVVAISSGGFIYDAVSLEGRFTISRENTKNTVYLQTPSLKPEDTAVYYCAASRAYGSSRLRLADTYDYWGQGTQVTVSS | 20 | 332
7 | VEGFBII27D08 (VHH, periplasmic extract) VHH: EVQLVESGGGLVQTGDSLRLSCAASGRTFSSYSMGWFRQAQGKEREFVVAISSGGYKYDSVSLEGRFTISRDNTQNTVYLQINSLKPEDTAVYYCAASRAYGSGRLRLADTYDYWGQGTQVTVSS | 13 | 225
8 | VEGFBII42F11 (VHH, periplasmic extract) VHH: EVQLVESGGGLVQPGDSLKLSCVASGRTSSSYSVGWFRQAQGKEREFVVAISSGGYIYDSVSLQGRFTISRDNTKNTVYLQTPSLKPEDTAVYYCAASRAYGSSRLRLADTYDYWGQGTQVTVSS | 46 | 100
9 | VEGFBII22A10 (VHH, periplasmic extract) VHH: EVQLVESGGGLVQPGDSLKLSCAFSGRTFSSYSMGWFRQAQGKEREFVVAISSSGGYIYDSVSLEGRFTISRDNTKNTVYLQTPSLKPEDTADYYCAASRAYGSSRLRLADTYDYWGQGTQVTVSS | 19 | 229
10 | VEGFBII39G04 (VHH, periplasmic extract) VHH: EVPLVESGGGLVQAGDSLRLSCAASGRTFSSYSMGWFRQAQGKEREFVVAISSSGNYKYDSASLEGRFTISRDNTKNTVYLQINSLKPEDTAVYYCAASRAYGSSRLRLGDTYDYWGQGTQVTVSS | 40 | 210
11 | VEGFBII23F11 (VHH, periplasmic extract) VHH: EVQLVESGGGLVQPGDSLKLSCAFSGRTFSSYSMGWFRQAQGKEREFVVAISSGGGYIYDSVSLEGRFTISRDNTKNTVYLQTPSLKPEDTADYYCAASRAYGSSRLRLADTYDYWGQGTQVTVSS | 22 | 134
12 | VEGFBII23A09 (VHH, periplasmic extract) VHH: EVQLVESGGGLVQPGDSLKLSCAFSGRTFGSYSMGWFRQAQGKEREFVVAISSSGGYIYDSVSLEGRFTISRDNSKNTVYLQTPSLKPEDTAVYYCAASRAYGSSRLRLPDTYDYWGQGTQVTVSS | 20 | 247
13 | VEGFBII22B06 (VHH, periplasmic extract) VHH: EVQLVESGGGLVQPGDSLKLSCAASGRTFSSYSMGWFRQAQGKEREFVVAISSSGGYIYDSVSLEGRFTISRDNTKNTVYLQTPSLKPEDTAVYYCAASRAYGSSRLRLADTYDYWGQGTQVTVSS | 23 | 168
14 | VEGFBII31C07 (VHH, periplasmic extract) VHH: EVQLVESGGGLVQTGDSLRLSCAASGGTFSSYSMGWFRQAQGKEREFVVAISSSGGYIYDSVSLEGRFTISRDNTKNTVYLQTPSLKPEDTADYYCAASRAYGSSRLRLADTYDYWGQGTQVTVSS | 25 | 77
15 | VEGFBII23G03 (VHH, periplasmic extract) VHH: EVQLVESGGGLVQPGDSLKLSCAFSGRTFGSYSMGWFRQAQGKEREFVVAISSSGGYIYDSVSLEGRFTISRDNSKNTVYLQTPSLKPEDTAVYYCAASRAYGSSRLRLPGTYDYWGQGTQVTVSS | 28 | 141
16 | VEGFBII30E07 (VHH, periplasmic extract) VHH: EVQLVESGGGLVQAGDSLRLSCAASGRTFSSYSMGWFRQAQGKEREFVVAISSSGNYKYDSVSLEGRFTISRDNTKNTVYLQINSLKPEDTAVYYCAASRAYGSSRLRLGDTYDYWGQGTRVTVSS | 29 | 226
17 | VEGFBII40G07 (VHH, periplasmic extract) VHH: EVQLVESGGGLVQPGDSLKLSCAFSGRTFSSYSMGWFRQAQGKEREFVVAISSSGGYIYDSVSLEGRFTISRDNTKNAVYLQTPSLKPEDTADYYCAASRAYGSSRLRLADTYDYWGQGTQVTVSS | 19 | 139

The remaining lines, values ahead:

Row | % fast [1] [%] | Binding level (RU) [2] [RU] | Binder
18 | 16 | 324 | VEGFBII41B05 (VHH, periplasmic extract) VHH: EVQLVESGGGLVQPGGSLRLSCAFSGRTFSSYSMGWFRQAQGKEREFVVAISSGGFIYDAVSLEGRFTISRDNTKNTVYLQTPSLKPEDTAVYYCAASRAYGSSRLRLADTYDYWGQGTQVTVSS
19 | 20 | 258 | VEGFBII40F02 (VHH, periplasmic extract) VHH: EVQLVESGGGLVQPGDSLKLSCAFSGRTFSSYSMAWFRQAQGKEREFVVAISSGGFIYDAVSLEGRFTISRDNTKNTVYLQTPSLKPEGTAVYYCAASRAYGSSRLRLADTYDYWGQGTQVTVSS
20 | 19 | 502 | VEGFBII23A08 (VHH, periplasmic extract) VHH: EVQLVESGGGLVQTGDSLRLSCVASGRTFSSYSMGWFRQAQGKEREFVVAISNGGYKYDSVSLEGRFTISRDNTKNTVYLQINSLKPEDTAVYYCAASRAYGSSRLRLADTYDYWGQGTQVTVSS
21 | 21 | 275 | VEGFBII61A01 (VHH, periplasmic extract) VHH: EVQLVESGGGLVQAGGSLRLSCAFSGRTFSSYSMGWFRQAQGKEREFVVAISSGGYKYDAVSLEGRFTISRDNTKNTVYLQTPSLKPEDTAVYYCAASRAYASSRLRLADTYDYWGQGTQVTVSS
22 | 13 | 510 | VEGFBII23D11 (VHH, periplasmic extract) VHH: EVQLVESGGGLVQPGDSLRLSCAFSGRTFSSYSMAWFRQAQGKEREFVVAISSGGFIYDAVSLEGRFTISRDNTKNTVYLQTPSLKPEDTAVYYCAASRAYGSSRLRLADTYDYWGQGTQVTVSS
23 | 12 | 461 | VEGFBII22A11 (VHH, periplasmic extract) VHH: EVQLVESGGGLVQPGDSLKLSCAFSGRTFSSYSMAWFRQAQGKEREFVVAISSGGFIYDAVSLEGRFTISRDNTKNTVYLQTPSLKPEDTAVYYCAASRAYGSSRLRLADTYDYWGQGTQVTVSS
24 | 18 | 275 | VEGFBII23E05 (VHH, periplasmic extract) VHH: EVQLVESEGGLVQPGDSLKLSCVASGRTSSSYSMGWFRQAQGKEREFVVAISSGGYIYDSVSLQGRFTISRDNTKNTVYLQTPSLKPEDTAVYYCAASRAYGSSRLRLADTYDYWGQGTQVTVSS
25 | 13 | 181 | VEGFBII39E02 (VHH, periplasmic extract) VHH: EVQLVESGGGLVQPGDPLKLSCAFSGRTFSSYSMGWFRQAQGKEREFVVAISSSGGYIYDSVSLEGRFTISRDNTKNTVYLQTPSLKPEDTADYYCAASRAYGSSRLRLADTYDYWGQGTQVTVSS
26 | 31 | 328 | VEGFBII22B07 (VHH, periplasmic extract) VHH: EVQLVESGGGLVQAGDSLRLSCAASGRTFSSYSMGWFRQAQGKEREFVVAISSSGNYKYDSVSLEGRFTISRDNTKNTVYLQINSLKPEDTAVYYCAASRAYGSSRLRLGDTYDYWGQGTQVTVSS
27 | 29 | 198 | VEGFBII23F05 (VHH, periplasmic extract) VHH: EVQLVESGGGLVQAGDSLRLSCAASGRTFSSYSMGWFRQAQGKEREFVVAISSSGNYKYDSVSLEGRFTISRDNTKNTVYLQINSLKPKDTAVYYCAASRAYGSSRLRLGDTYDYWGQGTQVTVSS
28 | 17 | 200 | VEGFBII40H10 (VHH, periplasmic extract) VHH: EVQLMESGGGLVQPGDSLKLSCAFSGRTFSSYSMGWFRQAQGKEREFVVAISSSGGYIYDSVSLEGRFTISRDNTKNTVYLQTPSLKPEDTADYYCAASRAYGSSRLRLADTYDYWGQGTQVTVSS
